Assay results reported in publication PMC7512442.

Biological target: T1, RBM22 (pre-mRNA-splicing factor RBM22) (Homo sapiens, UniProt Q9NW64 1-420)
T1 sequence: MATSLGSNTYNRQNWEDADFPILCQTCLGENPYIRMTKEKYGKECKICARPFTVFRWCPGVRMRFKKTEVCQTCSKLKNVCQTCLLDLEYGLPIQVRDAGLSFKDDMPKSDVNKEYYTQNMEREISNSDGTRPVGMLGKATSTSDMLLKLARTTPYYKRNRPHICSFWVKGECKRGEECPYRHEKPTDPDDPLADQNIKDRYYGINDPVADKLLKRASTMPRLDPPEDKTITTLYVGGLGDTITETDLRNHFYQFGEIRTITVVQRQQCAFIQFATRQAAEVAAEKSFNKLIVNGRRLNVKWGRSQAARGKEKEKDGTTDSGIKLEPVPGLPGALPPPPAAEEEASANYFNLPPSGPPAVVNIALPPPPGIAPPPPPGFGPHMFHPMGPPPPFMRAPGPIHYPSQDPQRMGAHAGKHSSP
Experiment: EMSA

Does GGGGAUCCACAUGGUUCUUGCCUUUU (ssRNA) [human U5 snRNA fragment (nonspecific control)] bind?
Result: no binding
